# Assay: soluble on expression in E. coli; label from the status in PepcDB or PDB records
row,Sequence,soluble on expression in E. coli
1,VTALLDVNVLIALGWPNHVHHAAAQRWFTQFSSNGWATTPITEAGYVRISSNRSVMQVSTTPAIAIAQLAAMTSLAGHTFWPDDVPLIVGSAGDRDAVSNHRRVTDCHLIALAARYGGRLVTFDAALADSASAGLVEVL,not soluble
2,MSGRSVRAETRSRAKDDIKKVMAATERVRRWEKKWVTVGDTSLRIFKWVPVTETKQIYKPKGAGPAVRELKGFPTDVVLENARSVLLDFQDDNSNQSFLSDAYQSNTKVDSSSNSSPQHVSEAVSPSHPPYYRTEDSQPPTLGQESMEAEREASTTSSEVTDEPPTLIKEDVLSLSTQEEEEAIGAPPLKRVCTEHNSTVS,not soluble
3,MAHHHHHHMRRSALRGAARGNDNGAICRRYRDTSLCVVTSLTPSVHGGGSTSVVASSSSLSCPPRPSACYATAMHMSARHRLTNASILSNIKSMANEKDDLTSKLVYLRRRQEDAIAFAVKEKEMLAEKAKRQLAMEEEKLKVEARIEALISEAAQLGGPAAAQRMRDEIAKDKTRYVRSVDAFGDKTVRLQHTFAGLADNRIIHWWEYAYWNYIRYFFTQELLIAKDRFGNKFTVTWQFLKGREEQRRMYRKDSNKKHQPYGALATDERLWERWMRGHRGDPPSVAEEEHLRDYKKQFFGAMVLEDEEVEDALMRLMAHMNRASQTFQELDEDQVYGDAHRVAKPLRETERKPGEEMSARQKQKGATWTLGFARGDLFYNEEETQVMRTEMGHLFRNMEWQELEYKRQVRMNKQQPPHGKPPEGTTDPNTPDGDPMNHYWERTDLGIPYHDAVPDLTTPELERMRIESSQLEDERLAIRKELGLTDLGDIREGREPIKRDHAPFQPPPVSQRWKPKCWEESWGTGSGMKY,not soluble
4,MGSDKIHHHHHHMAKFDNHPTVRWWREQSTNNPKTSTVALNSDSLRTLCLDAGADDVGFVEIYRPAIADQHAEILAVFPPTKTLISFVCCMNRESVRTPARSIANLEFHANYDHADEVARNLVKAFAQIGVRALNPSVAFPMEMDRYPDKKAWIISHKPVAVEAGLGHIGIHRNVIHPKFGNFIALGTVLIDTEVTEYAHPINYNPCIECKLCVAACPVGAIGADGSFSFSACYTHNYREFMGGFTDWTETIADSKSASDYRKKVSASESASMWQSLSFKPNYKAAYCIAACPAGEDVIAPFLSDRKAFIKDVVKPLQDKTETIYVVPGSDAENYVVKHFPNKTVKLVSSGIRPQSIQGFLFGLPLLFQRNQSEGLSAIYHFTFTGSESRRATVTIQNKMVRVQEGHLGKANISVTADSKTWLGFLGKEQNLIWALLRCKIRVSGSLKLLQAFGKCFPTCNIH,not soluble
5,MGSDKIHHHHHHMEKDRHEIEIFKIDQMFIGDSQEELIKQGEGRRKEHPIAAISTFNPVKRDVFQLIKLTEEKMIPELLGMRHKRMMQNPFSYFRATAGIMEKDLRQFPDGQSHIPVIICGDSHLTNFGFFASPERHLLFGLNDFDEARIGNWEFDLKRLLTSVVLIGRINGYPKEQLDGILAESVHSYRRGIKYANSLPLLDRFNLSYSVDDLLGQMTDNEQMKRVLLKVADRAPKKNSDAVVKKFTEKTEDGRLRFKKNPPRARRVSQKVYAELMASLEDYQKSVADDIRVLLINYEVTDIIRYSVGVGSWGTRCYLALLTGKDGSHLVLQIKEALPLRYNLSALTVEESQAQGKGEGKRIITAQRVLQTYHDPFLGAMEAGGRSFYVRQFRDMKDSIDPLNLDQESFSAYCNMCAFILAIAHYQSPTAPMIYGYVHKQKELDTGLAHWAVKYADQMEADYTCFAKYLQGEGDEE,not soluble
6,MKAICVLSGGLDSAVTSMFAKSKNYDISTVTFNYGQMALNQEIKSAKKISDILNADHHVIDINFVKEFSKSGLNTGNIPEPENEDLDDFEKSEKTMKAVWVPARNMIMFSIASGFAEGIGAEKIFSGLNKEEGVTFPDNTPEFIERFNKSLEYGTLNKVKMVAPLYELNKPEIAKLGKELELKLDLEVLKYSYSCYKDNGKDYLHCGTCESCMRRKRAFKEAGITDPTKYLVE,not soluble
7,MGSDKIHHHHHHMPVTAIFSPDTPAMGIGWRHPHYAGLLQTGPALDFIEVHSENFFAPGGAARAVLRQGREHYPVSLHGTGLSLGSACGVDEWHLAQLAELVQEIDPVRVSDHASFARGHLPGTDAPVHAADLLPVPFTREALAVMCSNVQRVQERLKRPIAVENLSAYLDWRAADMRETEFLAALAQRTGCSLLVDVNNLYVNAQNAWLRGALNSAPGDADAALASCRDWIDQIAASPVAELHLAGHAHLGDIVIDDHGSRVCAEVWQLYRHALARLGPVPTLIEWDTDVPALSVLLDEVARARGIAQGRPATRQPSAEARP,not soluble
8,GPGSMTRELHRLYVTEPAPPPSLYILTGAGTKAFCAGGDVIGLTTNNPPGCGREFFYWEYQVDYKASIIPAGQVCLWDGYVLGGGAGLSIGSAYRVASEKACFAMPEVAIGMFPDVGASWFLPRLSVPGLGLYMGLTGHRLRGADLVHLGLATHFVPSAKMGELEQALVSMSDAGDVEAVLDKYTTPTTQLPPCTIAHSISSLASHFDITADLTISSILDACREHAQTDPLAKAAADLMPSFSPTAMTLALELLKRGA,not soluble
9,MGSDKIHHHHHHMKAAIITKYKQITPMVTEVPVPTIAPTDVLVKIVAASVNPIDLKTKDGDLRLLLQYTMPLIMGSDFAGVITAVGDQVPDFKVGDAVYGRAPKDRIGTFAEFIAIDHQAIALKPANLNFEEAAAIPLVGLTSYQALHDIMNIQPGQKVFIPGGSGGIGIIAIQLAKYFGAYVATTTSAKHFDLVQSLGADKIIDYHQQDFTDVLSHYDAVLDTRGGQSLEAAFQIIKPGGQIVSIAGLPNARFGKDYGLPIWKQWLLGLATRKLSRLEQQAQATYSFLFMQPSGQQLVRLRQLIEQGVIKPVVDRIIPLTDINAALEYSHSGHTTGKIIISIQPN,not soluble
10,MFRVQTLNQIAEKGLQVFTEERYEVGDRINHPDGILLRSYSLHQEEFSKDLKAIARAGAGVNNIPVERCTEKGIVVFNTPGANANAVKELIIASLIMSSRNIINGVSWTKNLEGEEVPQLVESGKKQFVGSEIAGKRLGVIGLGAIGALVANDALALGMDVIGYDPYISVETAWRLSTHVQRAFSLDEIFATCDYITLHIPLTNQTKGIIGEHAVEKMKRGMRLFNFSRGELVDEKVLQKALEEDIITHYVTDFPNENVIKMKNVTATPHLGASTSESEENCAVMAARQLREYLETGNIRNSVNYPNVELPYIGKKRITIMHQNVPNMVGQITGCLAEHHINIADMTNRSKHSWAYTMIDIDNGIDDIIKENIVENISKITGVVAVRMIV,not soluble
